Assay results as given in patent publication US20220347309A1 (ADC THERAPEUTICS, published 2022).

Target: T1, CD25 on human anaplastic large cell lymphoma Karpas-299 cells (human, UniProt P01589 22-272)
T1 construct: whole, on cells; Endogenous antigen on the cell line
T1 sequence (looked up): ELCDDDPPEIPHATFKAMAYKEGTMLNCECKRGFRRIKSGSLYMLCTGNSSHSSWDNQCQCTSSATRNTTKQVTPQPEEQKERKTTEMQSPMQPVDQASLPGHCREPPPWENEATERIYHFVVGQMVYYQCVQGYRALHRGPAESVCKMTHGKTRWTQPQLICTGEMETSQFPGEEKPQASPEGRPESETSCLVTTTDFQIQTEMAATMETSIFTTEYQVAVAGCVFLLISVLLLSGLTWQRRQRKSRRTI
Assay: flow cytometry, serial dilution of antibody on Karpas-299 wt, ADCR and PBDR cells, Alexa Fluor 488 anti-human Fc secondary
Description: The cells were then washed and incubated with a F(ab′)2-Goat anti-Human IgG Fc Secondary Antibody conjugated to Alexa Fluor 488. After incubation for 1 hour on ice in the dark the cells were washed and run on a Fortessa X20 flow cytometer, and the mean fluorescence intensity (MFI) determined using the B530/30 laser/filter.

binding result: binds
B1: HuMax-TAC mAb (antibody, V domains shown)
VH: QVQLVQSGAEVKKPGSSVKVSCKASGGTFSRYIINWVRQAPGQGLEWMGRIIPILGVENYAQKFQGRVTITADKSTSTAYMELSSLRSEDTAVYYCARKDWFDYWGQGTLVTVSS
VL: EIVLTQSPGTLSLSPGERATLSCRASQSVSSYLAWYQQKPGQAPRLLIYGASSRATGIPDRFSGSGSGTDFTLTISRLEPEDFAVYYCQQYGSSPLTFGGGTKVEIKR
notes: also called AB12; CD25 antibody
